These results are taken from US20240277831A1 (University of Washington, published 2024).

Experiment [1] deals with RBD-8GS-I53-50A trimeric component (SARS-CoV-2).
In the next experiment the target is Monomeric SARS-CoV-2 RBD (SARS-CoV-2, UniProt P0DTC2 328-531).
In experiment [2] the target is RBD-12GS-I53-50A trimeric component (SARS-CoV-2).

B1: monomeric human ACE2 (hACE2) ectodomain (receptor)
chain: STIEEQAKTFLDKFNHEAEDLFYQSSLASWNYNTNITEENVQNMNNAGDKWSAFLKEQSTLAQMYPLQEIQNLTVKLQLQALQQNGSSVLSEDKSKRLNTILNTMSTIYSTGKVCNPDNPQECLLLEPGLNEIMANSLDYNERLWAWESWRSEVGKQLRPLYEEYVVLKNEMARANHYEDYGDYWRGDYEVNGVDGYDYSRGQLIEDVEHTFEEIKPLYEHLHAYVRAKLMNAYPSYISPIGCLPAHLLGDMWGRFWTNLYSLTVPFGQKPNIDVTDAMVDQAWDAQRIFKEAEKFFVSVGLPNMTQGFWENSMLTDPGNVQKAVCHPTAWDLGKGDFRILMCTKVTMDDFLTAHHEMGHIQYDMAYAAQPFLLRNGANEGFHEAVGEIMSLSAATPKHLKSIGLLSPDFQEDNETEINFLLKQALTIVGTLPFTYMLEKWRWMVFKGEIPKDQWMKKWWEMKREIVGVVEPVPHDETYCDPASLFHVSNDYSFIRYYTGTLYQFQFQEALCQAAKHEGPLHKCDISNSTEAGQKLFNMLRLGKSEPWTLALENVVGAKNMNVRPLLNYFEPLFTWLKDQNKNSFVGWSTDWSPYADPLVPR
The Kd is the constant that tells how readily two partners part at equilibrium. Higher therefore signals a looser complex. By koff is commonly meant the rate constant with which the complex falls apart. A higher koff goes with fast dissociation. As a reminder, the kon is the second-order rate constant of association. A low value points to slow association. In experiment [1], B1 returned a Kd of 70 nM, a koff of 0.004 s⁻¹ and a kon of 60000 M⁻¹ s⁻¹. In the experiment with Monomeric SARS-CoV-2 RBD, this molecule yielded a dissociation constant (Kd) of 69 nM, a koff of 0.005 s⁻¹ and a kon of 70000 M⁻¹ s⁻¹. In experiment [2], this molecule showed an equilibrium dissociation constant (Kd) of 78 nM, a koff of 0.005 s⁻¹ and a kon of 60000 M⁻¹ s⁻¹.
